Assay results reported in the supplement of paper PMC9233669.
Fewer inactive variants are shown than the library holds.

How the values were obtained:
biotinyl-Val-oxazolone = experiment: self-aminoacylation, catalytic enhancement (BVO) (fold over background); higher = more active; k-Seq, kA / k0A0; sequences stand for … in GGGAAUGGAUCCACAUCUACGAAUUC…UUCACUGCAGACUUGACGAAGCUG
Summary of the method: (§1)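 Working in 50 μL HEPES/NaCl/KCl/MgCl2/CaCl2 buffer with 5% acetonitrile at pH 6.9–7.0, mutagenized RNA pools (0.43 μM; 21-nt variable region) were reacted with 2–1250 μM of each biotinyl-aminoacyl-oxazolone for 90 minutes at room temperature. Streptavidin capture followed, with quantification by triplicate qPCR and Illumina sequencing. Catalytic enhancement is reported as median kA over the uncatalyzed rate, the low-activity peak of a bimodal Gaussian fit to the data.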

biotinyl-Phe-oxazolone = experiment: self-aminoacylation, catalytic enhancement (BFO) (fold over background); higher = more active; k-Seq, kA / k0A0; sequences stand for … in GGGAAUGGAUCCACAUCUACGAAUUC…UUCACUGCAGACUUGACGAAGCUG
Summary of the method: as §1

biotinyl-Met-oxazolone = experiment: self-aminoacylation, catalytic enhancement (BMO) (fold over background); higher = more active; k-Seq, kA / k0A0; sequences stand for … in GGGAAUGGAUCCACAUCUACGAAUUC…UUCACUGCAGACUUGACGAAGCUG
Summary of the method: as §1

biotinyl-Leu-oxazolone = experiment: self-aminoacylation, catalytic enhancement (BLO) (fold over background); higher = more active; k-Seq, kA / k0A0; sequences stand for … in GGGAAUGGAUCCACAUCUACGAAUUC…UUCACUGCAGACUUGACGAAGCUG
Summary of the method: as §1

biotinyl-Trp-oxazolone = experiment: self-aminoacylation, catalytic enhancement (BWO) (fold over background); higher = more active; k-Seq, kA / k0A0; sequences stand for … in GGGAAUGGAUCCACAUCUACGAAUUC…UUCACUGCAGACUUGACGAAGCUG
Summary of the method: as §1

biotinyl-Ile-oxazolone = experiment: self-aminoacylation, catalytic enhancement (BIO) (fold over background); higher = more active; k-Seq, kA / k0A0; sequences stand for … in GGGAAUGGAUCCACAUCUACGAAUUC…UUCACUGCAGACUUGACGAAGCUG
Summary of the method: as §1

| Sequence | self-aminoacylation (biotinyl-Val-oxazolone) | self-aminoacylation (biotinyl-Phe-oxazolone) | self-aminoacylation (biotinyl-Met-oxazolone) | self-aminoacylation (biotinyl-Leu-oxazolone) | self-aminoacylation (biotinyl-Trp-oxazolone) | self-aminoacylation (biotinyl-Ile-oxazolone) |
| --- | --- | --- | --- | --- | --- | --- |
| AAGUUUGCUAUUACUCGCAAG [Fam3.1 aminoacylation ribozyme variant] | 0.868 | 1.09 | 0.734 | 0.82 | 0.738 | 0.728 |
| CUACUUCACACAAGCGGUCUG [Fam1A.1 aminoacylation ribozyme variant] | 0.993 | 0.75 | 0.816 | 0.817 | 1.01 | 1.03 |
| AAGUUCGCUAAUAGUCACAAG [Fam3.1 aminoacylation ribozyme variant] | 1.25 | 3.01 | 1.56 | 1.6 | 1.64 | 1.59 |
| AAGUUUCCUAUUAGUCGCAAG [Fam3.1 aminoacylation ribozyme variant] | 1.32 | 1.87 | 1.24 | 1.22 | 1.35 | 1.29 |
| AUUACCCUGGUCACCAAGUGA [Fam2.1 aminoacylation ribozyme variant] | 3.32 | 34.3 | 6.45 | 6.54 | 7.7 | 3.47 |
| AUGACACUGGUCAUCGAGUGA [Fam2.1 aminoacylation ribozyme variant] | 3.05 | 25.8 | 5.48 | 6.42 | 6.47 | 3.42 |
| AUUACCCUGGCCAUCGAGUUA [Fam2.1 aminoacylation ribozyme variant] | 1.12 | 0.675 | 1.26 | 1.28 | 0.729 | 1.38 |
| AUUCACCUAGGUCGUCGGCUG [Fam2.2 aminoacylation ribozyme variant] | 1.97 | 4.94 | 2.16 | 2.55 | 1.63 | 1.62 |
| CCACACUUCAUUCAAUCGGUC [Fam1B.1 aminoacylation ribozyme variant] | 0.744 | 0.605 | 0.604 | 0.701 | 0.495 | 0.806 |
| AAGUUUGCUCAUAGUAGCAAG [Fam3.1 aminoacylation ribozyme variant] | 1.09 | 1.58 | 0.727 | 0.817 | 0.786 | 0.928 |
| AGUAGCCUGGUCAUCGAGUGA [Fam2.1 aminoacylation ribozyme variant] | 4.85 | 37.9 | 7.32 | 7.91 | 8.44 | 4.84 |
| AUUACCCAGGUCAUCGACUGA [Fam2.1 aminoacylation ribozyme variant] | 1.03 | 0.774 | 0.743 | 0.746 | 0.9 | 0.847 |
| AUUGCCCCGGUCAUCGAGUGA [Fam2.1 aminoacylation ribozyme variant] | 3.18 | 37.5 | 5.22 | 6.75 | 6.57 | 2.79 |
| AAAUUUCCUAAUAGUCGCAAG [Fam3.1 aminoacylation ribozyme variant] | 1.09 | 1.2 | 1.1 | 1.18 | 0.976 | 1.24 |
| CUAGUUCAAACAGUCGGUCUG [Fam1A.1 aminoacylation ribozyme variant] | 0.945 | 0.551 | 0.947 | 1.12 | 0.759 | 1.04 |
| CCACACUUCAAGUUAUCGGUC [Fam1B.1 aminoacylation ribozyme variant] | 1.06 | 0.799 | 1.01 | 1.04 | 1.08 | 1.09 |
| AAAUUUGCUAAUAGGCGCAAG [Fam3.1 aminoacylation ribozyme variant] | 1.04 | 1.29 | 1.28 | 1.51 | 1.25 | 1.41 |
| CUAGUUUAAACAAUCGGUCUG [Fam1A.1 aminoacylation ribozyme variant] | 0.765 | 0.814 | 0.84 | 0.774 | 0.631 | 0.924 |
| AUUACCCAGGUCAUCGAGUUA [Fam2.1 aminoacylation ribozyme variant] | 1 | 1.39 | 0.882 | 0.915 | 1.32 | 1.01 |
| CCACACUUCAAGAAAUCUGUC [Fam1B.1 aminoacylation ribozyme variant] | 0.402 | 0.421 | 0.349 | 0.292 | 0.349 | 0.306 |
| CCACGCUUCAAGCAGUCGGUC [Fam1B.1 aminoacylation ribozyme variant] | 1.33 | 1 | 1.03 | 0.887 | 0.91 | 0.755 |
| CCACACUUUAAGCAAUCGCUC [Fam1B.1 aminoacylation ribozyme variant] | 1.08 | 0.598 | 1.1 | 0.897 | 1.2 | 0.99 |
| AUUCACCUAGGUAAUCGGGUC [Fam2.2 aminoacylation ribozyme variant] | 0.689 | 0.508 | 0.606 | 0.754 | 0.691 | 0.866 |
| AUUCAUUUAGGUCAUCGGGUG [Fam2.2 aminoacylation ribozyme variant] | 3.33 | 45.6 | 5.48 | 6.72 | 5.6 | 3.25 |
| UUUACCCUGGGCAUCGAGUGA [Fam2.1 aminoacylation ribozyme variant] | 2.83 | 10.4 | 4.18 | 4.84 | 5.06 | 2.3 |
| AAGUUUGAUAAUCGUCGCAAG [Fam3.1 aminoacylation ribozyme variant] | 1.13 | 1.99 | 1.25 | 1.26 | 1.43 | 1.54 |

| Sequence | self-aminoacylation (biotinyl-Val-oxazolone) | self-aminoacylation (biotinyl-Phe-oxazolone) | self-aminoacylation (biotinyl-Met-oxazolone) | self-aminoacylation (biotinyl-Leu-oxazolone) | self-aminoacylation (biotinyl-Trp-oxazolone) | self-aminoacylation (biotinyl-Ile-oxazolone) |
| --- | --- | --- | --- | --- | --- | --- |
| ACGUUUGCUAAUUGUCGCAAG [Fam3.1 aminoacylation ribozyme variant] | 1.77 | 1.96 | 1.81 | 2.06 | 2.66 | 1.6 |
| AGGUUCGCUAAUAGUCGCAAG [Fam3.1 aminoacylation ribozyme variant] | 2.34 | 12.3 | 2.81 | 3.26 | 4.12 | 2.82 |
| AUUCAACUAGGUCAUCGGCUG [Fam2.2 aminoacylation ribozyme variant] | 1.75 | 5.81 | 1.91 | 1.46 | 1.45 | 1.57 |
| CUACUUCAAACAAUUGGUGUG [Fam1A.1 aminoacylation ribozyme variant] | 1.12 | 1.52 | 1.24 | 1.62 | 1.23 | 1.19 |
| AUUCACCUAGGACAUCGGGAG [Fam2.2 aminoacylation ribozyme variant] | 0.991 | 0.29 | 1.08 | 1.03 | 0.92 | 1.02 |
| CUGCUUCAUACAAUCGGUCUG [Fam1A.1 aminoacylation ribozyme variant] | 0.602 | 0.639 | 0.69 | 0.628 | 0.32 | 0.671 |
| CUACUUCAAAAAAUCGGUCUG [Fam1A.1 aminoacylation ribozyme variant] | 0.795 | 11.8 | 0.758 | 0.92 | 7.37 | 1 |
| AUUCACCAAGGUAAUCGGGUG [Fam2.2 aminoacylation ribozyme variant] | 3.19 | 42.2 | 5.69 | 7.71 | 4.8 | 3.5 |
| CCUCACUUUAAGCAAUCGGUC [Fam1B.1 aminoacylation ribozyme variant] | 0.688 | 1.2 | 0.544 | 0.619 | 0.683 | 0.734 |
| AUUACCGUGGUCAUCGGGUGA [Fam2.1 aminoacylation ribozyme variant] | 8.1 | 105 | 11.7 | 11.9 | 17.3 | 7.08 |
| AUGACCCUGGUCCUCGAGUGA [Fam2.1 aminoacylation ribozyme variant] | 1.77 | 22.1 | 3.2 | 3.2 | 3.81 | 1.88 |
| CUACACUUCCAGCAAUCGGUC [Fam1B.1 aminoacylation ribozyme variant] | 1.07 | 0.865 | 0.787 | 1.1 | 0.707 | 1.07 |
| AACUUUGCUAAUGGUCGCAAG [Fam3.1 aminoacylation ribozyme variant] | 2.43 | 9.47 | 2.44 | 2.64 | 3.24 | 2.47 |
| AAGUUUGCUAAUAGUCGCAUG [Fam3.1 aminoacylation ribozyme variant] | 0.916 | 1.47 | 0.93 | 0.932 | 0.976 | 1.03 |
| AAGUUGGCUAAUAUUCGCAAG [Fam3.1 aminoacylation ribozyme variant] | 2.09 | 2.07 | 1.85 | 2.11 | 3.02 | 2.32 |
| CAACACGUCAAGCAAUCGGUC [Fam1B.1 aminoacylation ribozyme variant] | 1.22 | 1.33 | 1.44 | 1.37 | 1.47 | 1.11 |
| AUCGCCCUGGUCAUCGAGUGA [Fam2.1 aminoacylation ribozyme variant] | 7.32 | 98.5 | 16.5 | 16 | 17.8 | 7.09 |
| CCACACUUCCAGCAAUCGGGC [Fam1B.1 aminoacylation ribozyme variant] | 2.32 | 1.84 | 1.72 | 1.74 | 2.82 | 2 |
| CUACUUCAAAGAAUAGGUCUG [Fam1A.1 aminoacylation ribozyme variant] | 0.746 | 0.944 | 0.784 | 0.699 | 0.59 | 0.816 |
| CUACUUCUAACAAGCGGUCUG [Fam1A.1 aminoacylation ribozyme variant] | 0.694 | 0.708 | 0.708 | 0.658 | 0.64 | 0.801 |
| CUACUUCUAACAAUCGGUGUG [Fam1A.1 aminoacylation ribozyme variant] | 0.687 | 0.728 | 0.91 | 0.907 | 0.569 | 0.844 |
| AUUCACUUAAGUCAUCGGGUG [Fam2.2 aminoacylation ribozyme variant] | 5.11 | 71.7 | 8.88 | 12.4 | 9.67 | 5.72 |
| CCACUUCAAACAAUCGUUCUG [Fam1A.1 aminoacylation ribozyme variant] | 0.674 | 2.21 | 0.479 | 0.653 | 1.09 | 0.582 |
| AUUACCCUCGCCAUCGAGUGA [Fam2.1 aminoacylation ribozyme variant] | 3.97 | 41.1 | 6.67 | 7.31 | 8.23 | 3.71 |
| AAGUUGGCUAAUAGUCGGAAG [Fam3.1 aminoacylation ribozyme variant] | 1.48 | 2.31 | 1.22 | 1.1 | 1.15 | 1.47 |
